B1: SlFLS promoter probe mutant (dsDNA)
DNA 1: CTTATATCGTCGACTCAACTTA
DNA 2: TAAGTTGAGTCGACGATATAAG
B2: CsCHS promoter probe mutant (dsDNA)
DNA 1: TTGATTTCTAGAACCCCCATTG
DNA 2: CAATGGGGGTTCTAGAAATCAA
B3: CsCHS promoter probe WT (dsDNA)
DNA 1: TTGATTTAACCTACCCCCATTG
DNA 2: CAATGGGGGTAGGTTAAATCAA
B4: Cs4CL promoter probe mutant (dsDNA)
DNA 1: TTAACTGCTCTAGACACACCCA
DNA 2: TGGGTGTGTCTAGAGCAGTTAA
B5: Cs4CL promoter probe WT (dsDNA)
DNA 1: TTAACTGCACCTACCACACCCA
DNA 2: TGGGTGTGGTAGGTGCAGTTAA
B6: SlFLS promoter probe WT (dsDNA)
DNA 1: CTTATATCACCTACTCAACTTA
DNA 2: TAAGTTGAGTAGGTGATATAAG

Target: CsMYBF1 (Citrus, UniProt A0A125SL50 1-337)
Sequence (A0A125SL50 entry or part of it): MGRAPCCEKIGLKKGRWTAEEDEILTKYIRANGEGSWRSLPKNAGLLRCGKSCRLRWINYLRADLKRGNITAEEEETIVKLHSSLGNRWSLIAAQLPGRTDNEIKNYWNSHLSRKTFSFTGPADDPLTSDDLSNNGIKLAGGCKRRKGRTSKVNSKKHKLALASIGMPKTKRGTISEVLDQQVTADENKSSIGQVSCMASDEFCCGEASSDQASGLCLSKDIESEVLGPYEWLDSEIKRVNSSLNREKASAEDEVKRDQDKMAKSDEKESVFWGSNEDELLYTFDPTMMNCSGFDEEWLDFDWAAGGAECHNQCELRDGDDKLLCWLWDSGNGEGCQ
Assay: EMSA; 0.1% Nonidet P-40, 1 mM benzamidine, 0.5 mM PMSF, 0.5 mM DTT, 50 ug/mL BSA, 100 ng/uL poly(dI-dC), 5 uM Cy3 probe, 1 ug protein in 20 uL, 4 C 2 h; 6% PAGE in 0.5x TBE at 4 C; salt and pH not stated
Conditions: protein: recombinant; tags: His (pET28a); label: Cy3

Row | Binder | binding result
1 | B1 | no binding
2 | B2 | no binding
3 | B3 | binds
4 | B4 | no binding
5 | B5 | binds
6 | B6 | binds
